Source: patent publication US20090297524A1 (DOMANTIS, published 2009)

T1: Recombinant human CD40L (human, UniProt P29965 108-261, limits assumed)
T1 construct: also called CD40 ligand
T1 sequence (looked up): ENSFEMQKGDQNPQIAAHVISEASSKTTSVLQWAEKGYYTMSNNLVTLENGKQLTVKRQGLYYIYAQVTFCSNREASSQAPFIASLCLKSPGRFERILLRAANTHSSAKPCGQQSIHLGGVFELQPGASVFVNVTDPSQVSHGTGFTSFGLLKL

B1: DOM.141 (other)
VL: DIQMTQSPSSLSASVGDRVTITCRASQWIGDTLTWYQQKLGKAPKLLIYGGSELQSGVPPRFSGSGSGTDFTLTISSLQPEDFATYYCQQCISSPCTFGQGTKVEIKR
notes: Vk dAb
B2: DOM.177 (other)
VH: EVQLLESGGGLVQPGGSLRLSCAASGFTFSNYYMVWVRQAPGKGLEWVSAIDEWGFATYYADSVKGRFTISRDNSKNTLYLQMNSLRAEDTAVYYCAKHWEFTSDTSRFDYWGQGTLVTVSS
notes: VH dAb
B3: DOM.183 (other)
VH: EVQLLESGGGLVQPGGSLRLSCAASGFTFADYGMGWVRQAPGKGLEWVSSIQSSGLRTYYADSVKGRFTISRDNSKNTLYLQMNSLRAEDTAVYYCAKRANSRRGFDYWGQGTLVTVSS
notes: VH dAb
B4: DOM.189 (other)
VH: EVQLLESGGGLVQPGGSLRLSCAASGFTFQMYPMGWVRQAPGKGLEWVSMIEPAGDLTYYADSVKGRFTISRDNSKNTLYLQMNSLRAEDTAVYYCAKYQEQPWFDYWGQGTLVTVSS
notes: VH dAb
B5: DOM.194 (other)
VH: EVQLLESGGGLVQPGGSLRLSCAASGFTFKQYDMRWVRQAPGKGLEWVSTISQNGTKTYYADSVKGRFTISRDNSKNTLYLQMNSLRAEDTAVYYCAKSRTGRYFDYWGQGTLVTVSS
notes: VH dAb
B6: DOM.182 (other)
VH: EVQLLESGGGLVQPGGSLRLSCAASGFTFDEYPMYWVRQAPGKGLEWVSSIGPSGPNTYYADSVKGRFTISRDNSKNTLYLQMNSLRAEDTAVYYCAKSPYFDVIPSYFDYWGQGTLVTVSS
notes: VH dAb
B7: DOM.185 (other)
VH: EVQLLESGGGLVQPGGSLRLSCAASGFTFAHYPMSWVRQAPGKGLEWVSSIGRLGNRTYYADSVKGRFTISRDNSKNTLYLQMNSLRAEDTAVYYCAKRATPVPIKGLFDYWGQGTLVTVSS
notes: VH dAb
B8: DOM.198 (other)
VH: EVQLLESGGGLVQPGGSLRLSCAASGFTFERYNMSWVRQAPGKGLEWVSSIRPRGGKTYYADSVKGRFTISRDNSKNTLYLQMNSLRAEDTAVYYCAKWRREGYTGSKFDYWGQGTLVTVSS
notes: VH dAb
B9: DOM.191 (other)
VH: EVQLLESGGGLVQPGGSLRLSCAASGFTFKLYPMTWVRQAPGKGLEWVSSIDAGGHETYYADSVKGRFTISRDNSKNTLYLQMNSLRAEDTAVYYCAKDWWDYLFDYWGQGTLVTVSS
notes: VH dAb
B10: DOM.188 (other)
VH: EVQLLESGGGLVQPGGSLRLSCAASGFTFTRYRMSWVRQAPGKGLEWVSGISRDGYRTYYADSVKGRFTISRDNSKNTLYLQMNSLRAEDTAVYYCAKGMTASFDYWGQGTLVTVSS
notes: VH dAb
B11: DOM.187 (other)
VH: EVQLLESGGGLVQPGGSLRLSCAASGFTFSSYSMVWVRQAPGKGLEWVSGINRGGTRTYYADSVKGRFTISRDNSKNTLYLQMNSLRAEDTAVYYCAKGWRRGFDYWGQGTLVTVSS
notes: VH dAb
B12: DOM.192 (other)
VH: EVQLLESGGGLVQPGGSLRLSCAASGFTFSRYPMSWVRQAPGKGLEWVSSINRSGMRTYYADSVKGRFTISRDNSKNTLYLQMNSLRAEDTAVYYCAEGHQAPFDYWGQGTLVTVSS
notes: VH dAb
B13: DOM.199 (other)
VH: EVQLLESGGGLVQPGGSLRLSCAASGFTFERYGMTWVRQAPGKGLEWVSSIWPRGQKTYYADSVKGRFTISRDNSKNTLYLQMNSLRAEDTAVYYCAKGNSRYVFDYWGQGTLVTVSS
notes: VH dAb
B14: DOM.139 (other)
VH: EVQLLESGGGLVQPGGSLRLSCAASGFTFSNYEMGWVRQAPGKGLEWVSVISEVGSLTYYADSVKGRFTISRDNSKNTLYLQMNSLRAEDTAVYYCAKPHDSSIGFDYWGQGTLVTVSS
notes: VH dAb
B15: DOM.195 (other)
VH: EVQLLESGGGLVQPGGSLRLSCAASGFTFGTYDMGWVRQAPGKGLEWVSRINWQGDRTYYADSVKGRFTISRDNSKNTLYLQMNSLRAEDTAVYYCAKAGFGHYVDGLGFDYWGQGTLVTVSS
notes: VH dAb
B16: DOM.149 (other)
VL: DIQMTQSPSSLSASVGDRVTITCRASQWIGRQLVWYQQKPGKAPKLLIYGATELQSGVPSRFSGSGSGTDFTLTISSLQPEDFATYYCQQQSKGPLTFGHGTKVEIKR
notes: Vk dAb
B17: DOM.181 (other)
VH: EVQLLESGGGLVQPGGSLRLSCAASGFTFAFYPMMWVRQAPGKGLEWVSWIDATGTRTYYADSVKGRFTISRDNSKNTLYLQMNSLRAEDTAVYYCAEGNYGSSYTMGVFDYWGQGTLVTVSS
notes: VH dAb
B18: DOM.146 (other)
VL: DIRMTQSPSSLSASVGDRVTITCRASQWIGDSLAWYQQKPGKAPKLLIYGISELQSGVPSRFSGSGSGTDFTLTISSLQPEDSATYYCQLSSSMPHTFGQGTKVEIKR
notes: Vk dAb
B19: DOM.200 (other)
VH: EVQLLESGGGLVQPGGSLRLSCAASGFTFTNYSMGWVRQAPGKGLEWVSTIRPNGTKTYYADSVKGRFTISRDNSKNTLYLQMNSLRAEDTAVYYCAKRSSAHLQRFDYWGQGTLVTVSS
notes: VH dAb
B20: DOM.201 (other)
VH: EVQLLESGGGLVQPGGSLRLSCAASGFTFGNYSMGWVRQAPGKGLEWVSSIGRHGGRTYYADSVKGRFTISRDNSKNTLYLQMNSLRAEDTAVYYCAKKGSTYPRFDYWGQGTLVTVSS
notes: VH dAb
B21: DOM.197 (other)
VH: EVQLLESGGGLVQPGGSLRLSCAASGFTFAKYKMWWVRQAPGKGLEWVSSITPKGHSTYYADSVKGRFTISRDNSKNTLYLQMNSLRAEDTAVYYCAKRPMTPFDYWGQGTLVTVSS
notes: VH dAb
B22: DOM.145 (other)
VL: DIQMTQSPSSLSASVGDRVTITCRASQTIYTSLSWYQQKPGKAPKLLIHYGSVLQSGVPSRFSGSGSGTDFTLTISSLQPEDSATYYCQQVHQAPTTFGQGTKVEIKR
notes: Vk dAb
B23: DOM.176 (other)
VH: EVQLLESGGGLVQPGGSLRLSCAASGFTFDAYEMGWVRQAPGKGLEWVSIIDWDGNSTYYADSVKGRFTISRDNSKNTLYLQMNSLRAEDTAVYYCAKPGDNVGIFDYWGQGTLVTVSS
notes: VH dAb

target: T1, Recombinant human CD40L; test: CD40L/CD40-Fc receptor binding assay;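 also: plate assay with coated human CD40-Fc, bound ligand detected via HRP anti-biotin antibody and TMB, OD at 450 nm, lower signal indicates stronger inhibition by dAb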
Experimental: A 96 well Nunc Maxisorp assay plate was coated overnight at 4° C. with 100 μl per well of recombinant human CD40/Fc (R&D Systems) at 0.5 μg/ml in carbonate buffer. The plate was washed 3 times with 300 μl of 0.05% Tween/PBS and 3 times with 300 μl of PBS using a Tecan plate washer. The wells were blocked using 200 μl of PBS containing 2% (w/v) BSA and incubated for a minimum of 1 h at room temperature. The wells were washed as above, then 50 μl of purified dAb protein (or unpurified supernatant containing dAb from a micro-culture expression) was added to each well.
The plate was washed as described above, then 100 μl HRP conjugated anti-biotin antibody (1:5000 dilution in diluent) added to each well and the plate incubated for 1 hr at room temperature. The plate was washed again as described above using a Tecan plate washer and the assay developed using 100 μl of SureBlue 1-Component TMB MicroWell Peroxidase solution (the plate was left at room temperature for up to 20 min). The reaction was stopped by the addition of 100 μl M hydrochloric acid. The OD₄₅₀ₙₘ of the plate was assayed within 30 minutes of acid addition. The OD₄₅₀ₙₘ is proportional to the amount of bound streptavidin-HRP conjugate, therefore the greater the degree of dAb inhibition the lower the OD₄₅₀ₙₘ of the resulting signal.

Binding result, binds:
B1
B2
B3
B4
B5
B6
B7
B8
B9
B10
B11
B12
B13
B14
B15
B16
B17
B18
B19
B20
B21
B22
B23
